Test results reported in IntAct's records for PubMed 11238466.

B1: CARD domain-containing protein E10 (Equine herpesvirus 2 (strain 86/87)), Q66677 (parent)
chain: MAEKYPLQAGDPCVTLTEEDIWDVERLCLEELRVLLVSHLKSHKHLDHLRAKKILSREDAEEVSSRATSRSRAGLLVDMCQDHPRGFQCLKESCKNEVGQEHLVDLLERAFEKHCGDKLTQKWWESGADGRNPRRPPGSEDNSGYTALLPTNPSGGGPSIGSGHSRPRGRDDSGGIGGGVYPFSHGGARVVGGGWGGWGESGGAGRGGSLLSGGHGGHPPHGGPGGGGRDYYGGGGSGYYESIPEPANFPNSGGGGRGGGVRYDAGGDGRLGGLPPDPQEVDDPSLSVQGRGGPAPDPPSPPLRTRRFFCC
partner: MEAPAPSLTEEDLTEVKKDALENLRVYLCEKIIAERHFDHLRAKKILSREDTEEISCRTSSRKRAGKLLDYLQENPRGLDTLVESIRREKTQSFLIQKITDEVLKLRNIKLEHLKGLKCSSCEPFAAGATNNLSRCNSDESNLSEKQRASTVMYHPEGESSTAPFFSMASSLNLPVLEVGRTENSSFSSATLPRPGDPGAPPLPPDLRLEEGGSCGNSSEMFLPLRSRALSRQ
B2: CARD domain-containing protein E10 (Equine herpesvirus 2 (strain 86/87)), Q66677 (parent)
chain: B1 chain
partner: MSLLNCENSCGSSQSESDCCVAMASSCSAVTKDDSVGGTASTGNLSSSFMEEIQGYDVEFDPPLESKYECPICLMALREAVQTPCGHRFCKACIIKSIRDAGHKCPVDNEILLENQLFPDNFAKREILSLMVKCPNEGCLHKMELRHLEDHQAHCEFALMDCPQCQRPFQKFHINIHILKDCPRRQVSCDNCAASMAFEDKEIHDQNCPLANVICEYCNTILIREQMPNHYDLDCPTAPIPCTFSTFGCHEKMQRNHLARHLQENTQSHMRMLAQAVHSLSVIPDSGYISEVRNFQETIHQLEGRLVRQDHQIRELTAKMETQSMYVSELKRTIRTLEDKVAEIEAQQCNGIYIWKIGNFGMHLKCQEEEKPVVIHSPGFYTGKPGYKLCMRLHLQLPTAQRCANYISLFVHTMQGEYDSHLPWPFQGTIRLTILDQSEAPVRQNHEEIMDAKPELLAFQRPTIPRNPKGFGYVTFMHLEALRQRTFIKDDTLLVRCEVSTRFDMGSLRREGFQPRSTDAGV

Variants of: B1
Conditions: with bcl10_mouse Bcl10, Q9Z0H7

Row | Variant | effect of a mutation on the interaction
1 | MAEKYPLQAGDPCVTLTEEDIWDVERLCLEELRVLLVSHLKSHKHLDHRRAKKILSREDAEEVSSRATSRSRAGLLVDMCQDHPRGFQCLKESCKNEVGQEHLVDLLERAFEKHCGDKLTQKWWESGADGRNPRRPPGSEDNSGYTALLPTNPSGGGPSIGSGHSRPRGRDDSGGIGGGVYPFSHGGARVVGGGWGGWGESGGAGRGGSLLSGGHGGHPPHGGPGGGGRDYYGGGGSGYYESIPEPANFPNSGGGGRGGGVRYDAGGDGRLGGLPPDPQEVDDPSLSVQGRGGPAPDPPSPPLRTRRFFCC [L49R] | decreasing interaction

Variants of: B2
Conditions: with traf6_human TRAF6, Q9Y4K3

Row | Variant | effect of a mutation on the interaction
2 | MAEKYPLQAGDPCVTLTEEDIWDVERLCLEELRVLLVSHLKSHKHLDHLRAKKILSREDAEEVSSRATSRSRAGLLVDMCQDHPRGFQCLKESCKNEVGQEHLVDLLERAFEKHCGDKLTQKWWESGADGRNPRRPPGSEDNSGYTALLPTNPSGGGPSIGSGHSRPRGRDDSGGIGGGVYPFSHGGARVVGGGWGGWGESGGAGRGGSLLSGGHGGHPPHGGPGGGGRDYYGGGGSGYYESIPEPANFPNSGGGGRGGGVRYDAGGDGRLGGLPPDGQAVDDPSLSVQGRGGPAPDPPSPPLRTRRFFCC [P278G;E280A] | decreasing interaction
